Measured values reported in article PMC13376213 (2026).
Substitutions are numbered along the chain they refer to. Names and notes keep the numbering of the source. Each block holds one binder with its values, some of them ahead of it. * marks the point of attachment. FITC = O=C1OC2(c3ccc(O)cc3Oc3cc(O)ccc32)c2ccc(NC(=S)*)cc21

Legend:
[1] = biological target: T1, USP33 zf-UBP domain, tag cleaved (for FP) (human, UniProt Q8TEY7 1-942); experiment: FP
T1 chain: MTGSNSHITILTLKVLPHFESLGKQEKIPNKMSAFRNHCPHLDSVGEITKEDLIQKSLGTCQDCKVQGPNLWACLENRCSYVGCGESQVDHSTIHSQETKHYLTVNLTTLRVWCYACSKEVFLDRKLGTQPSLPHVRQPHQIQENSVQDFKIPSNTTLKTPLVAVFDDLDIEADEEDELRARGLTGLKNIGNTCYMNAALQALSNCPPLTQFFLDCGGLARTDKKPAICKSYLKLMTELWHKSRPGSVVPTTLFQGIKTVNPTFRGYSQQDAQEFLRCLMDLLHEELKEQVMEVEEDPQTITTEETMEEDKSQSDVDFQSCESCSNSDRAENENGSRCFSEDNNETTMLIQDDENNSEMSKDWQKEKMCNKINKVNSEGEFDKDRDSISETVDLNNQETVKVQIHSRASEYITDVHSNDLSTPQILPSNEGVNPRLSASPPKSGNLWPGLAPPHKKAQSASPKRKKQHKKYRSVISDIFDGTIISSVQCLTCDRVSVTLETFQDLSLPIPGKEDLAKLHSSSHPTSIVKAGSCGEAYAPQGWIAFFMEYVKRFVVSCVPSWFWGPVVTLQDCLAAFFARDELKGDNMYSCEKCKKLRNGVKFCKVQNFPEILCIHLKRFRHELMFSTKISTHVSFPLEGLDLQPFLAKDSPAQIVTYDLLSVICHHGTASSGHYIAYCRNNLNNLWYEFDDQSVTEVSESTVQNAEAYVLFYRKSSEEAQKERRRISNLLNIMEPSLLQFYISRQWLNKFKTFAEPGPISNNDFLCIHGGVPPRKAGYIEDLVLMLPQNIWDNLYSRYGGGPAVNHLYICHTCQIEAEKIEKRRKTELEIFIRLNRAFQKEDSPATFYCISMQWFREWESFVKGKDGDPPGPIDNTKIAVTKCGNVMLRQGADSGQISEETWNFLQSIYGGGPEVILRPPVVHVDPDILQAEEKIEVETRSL

[2] = biological target: USP20 zf-UBP domain, tag cleaved (for FP) (human); experiment: FP
Sequence of USP20 zf-UBP domain, tag cleaved (for FP) (human) (chain, as listed by the source): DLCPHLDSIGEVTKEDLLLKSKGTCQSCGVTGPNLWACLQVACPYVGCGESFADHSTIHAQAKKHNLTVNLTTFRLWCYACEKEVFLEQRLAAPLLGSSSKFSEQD

USP22 zf-UBP = biological target: T2, USP22 zf-UBP (Homo sapiens, UniProt Q9UPT9); experiment: fluorescence polarization (direct for FITC probes, competitive otherwise)
T2 chain: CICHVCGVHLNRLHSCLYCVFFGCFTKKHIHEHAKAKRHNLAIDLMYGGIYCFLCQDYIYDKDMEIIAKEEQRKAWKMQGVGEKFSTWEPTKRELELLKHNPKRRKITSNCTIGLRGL

[3] = biological target: USP20 DUSP2 domain, tag cleaved (for FP) (human); experiment: FP
[4] = biological target: T3, USP20 DUSP2 domain N805A (for FP) (human); experiment: FP
T3 chain: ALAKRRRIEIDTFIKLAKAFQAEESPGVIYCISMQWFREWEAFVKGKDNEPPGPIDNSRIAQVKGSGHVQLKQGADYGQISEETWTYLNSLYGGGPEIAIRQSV

[5] = biological target: T4, USP20 DUSP2 domain K833E/K835E (for FP) (human); experiment: FP
T4 chain: T3 chain with A17N, K45E, K47E

[6] = biological target: T5, USP33 DUSP2 domain, tag cleaved (for FP) (human, UniProt Q8TEY7 1-942); experiment: FP
T5 chain: T1 chain

Binder: LPSPEVMLGQSWNLWVE (FITC label on probe peptides (FITC- prefix)) [ATXN7]
Kd (USP22 zf-UBP): 58.4 µM

Binder: VPSLDDFAGQSWSSWVE (FITC label on probe peptides (FITC- prefix)) [ATXN7L2_18-34]
Kd (USP22 zf-UBP): 19.4 µM

Binder: {FITC}-SDDDLAWNIAPQGLQ-NH2 [FITC-GPR137B 348-362]
Kd [3]: 5 µM
Kd [4]: > 130 µM
Kd [5]: > 290 µM

Binder: Ac-PYIPMDDDFQLRSFDQLS-NH2 [HIF1A 564-581]
Kd [3]: 19 µM

Binder: Ac-PYIPMDKDFQLRSFDQLS-NH2 [HIF1A 564-581 D570K]
Kd [3]: 19 µM

Binder: Ac-QLEEELFQLRQGPAG-NH2 [CCDC88B_(947-961) peptide]
Kd [3]: 22 µM
Kd [6]: 40 µM

Binder: Ac-EKVKRRLDLDID-NH2 [CCP110_(582-593) peptide]
Kd [2]: > 500 µM
Kd [1]: > 250 µM

Binder: Ac-SDDDLAWNIAPQGLQ-NH2 [GPR137B_(348-362) peptide]
Kd [3]: 10 µM
Kd [6]: > 200 µM

Binder: Ac-LQPSSKASLESTSDL-NH2 [CEP192 2073-2087]
Kd [2]: 37 µM
Kd [1]: 14 µM

Next, values leading:

Kd [1]: 41 µM
Binder: Ac-PFQPGRMALESQSPG-NH2 [USP19 874-888]

Kd [2]: 9 µM
Kd [1]: 8 µM
Binder: Ac-TNSSGKMALNSPQPG-NH2 [IRAG1 302-316]

Kd [3]: 45 µM
Kd [6]: 0.8 µM
Binder: Ac-DVVDDFQLQHRHGPG-NH2 [MFSD2B_(395-409) peptide]

Kd [3]: 89 µM
Binder: Ac-PYIPMDDDFQARSFDQLS-NH2 [HIF1A 564-581 L574A]

Kd [3]: 85 µM
Binder: Ac-PYIPMDDKFQLRSFDQLS-NH2 [HIF1A 564-581 D571K]

Kd [3]: > 200 µM
Kd [6]: > 1000 µM
Binder: Ac-PYIPMDGEDFQLSPICPE-NH2 [HIF2A peptide 531-548]
